Data as given in patent publication US20140271457A1 (AbbVie / Abbott, published 2014).

Molecular target: Recombinant Human IL-13 (human, UniProt P35225 35-146, limits assumed)
Experiment: cell-based or functional assay

Sequence of Recombinant Human IL-13 (P35225 35-146 limits assumed): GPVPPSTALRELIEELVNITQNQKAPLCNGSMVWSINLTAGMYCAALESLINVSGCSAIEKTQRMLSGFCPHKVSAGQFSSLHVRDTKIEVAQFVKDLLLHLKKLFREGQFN

Binder	IL-13 Neutralization Assay IC50
DVD3104 (bispecific antibody, human IgG1, kappa) heavy: not shown light: DIQMTQSPSSLSASVGDRVTITCRASQDISQYLNWYQQKPGKAPKLLIYYTSRLQSGVPSRFSGSGSGTDFTLTISSLQPEDFATYFCQQGNTWPPTFGQGTKLEIKRTVAAPDIQMTQSPSSLSASVGDRVTITCRASQLVSSAVAWYQQKPGKAPKLLIYWASARHTGVPSRFSGSGSGTDFTLTISSLQPEDFATYYCQQHYKTPFTFGQGTKLEIKRTVAAPSVFIFPPSDEQLKSGTASVVCLLNNFYPREAKVQWKVDNALQSGNSQESVTEQDSKDSTYSLSSTLTLSKADYEKHKVYACEVTHQGLSSPVTKSFNRGEC	1.05 nM
DVD3103 (bispecific antibody, human IgG1, kappa) heavy: not shown light: DIQMTQSPSSLSASVGDRVTITCRASQDISQYLNWYQQKPGKAPKLLIYYTSRLQSGVPSRFSGSGSGTDFTLTISSLQPEDFATYFCQQGNTWPPTFGQGTKLEIKRGGSGGGGSGDIQMTQSPSSLSASVGDRVTITCRASQLVSSAVAWYQQKPGKAPKLLIYWASARHTGVPSRFSGSGSGTDFTLTISSLQPEDFATYYCQQHYKTPFTFGQGTKLEIKRTVAAPSVFIFPPSDEQLKSGTASVVCLLNNFYPREAKVQWKVDNALQSGNSQESVTEQDSKDSTYSLSSTLTLSKADYEKHKVYACEVTHQGLSSPVTKSFNRGEC	0.042 nM
DVD3102 (bispecific antibody, human IgG1, kappa) heavy: not shown light: DVVMTQSPLSLPVTLGQPASISCRSSQSLVHSHGNTYLHWYQQRPGQSPRLLIYTVSNRFSGVPDRFSGSGSGTDFTLKISRVEAEDVGVYYCSQSTHVPYTFGGGTKVEIKRTVAAPDIQMTQSPSSLSASVGDRVTITCKASQLVSSAVAWYQQKPGKAPKLLIYWASTLHTGVPSRFSGSGSGTDFTLTISSLQPEDFATYYCQQHYRTPFTFGQGTKLEIKRTVAAPSVFIFPPSDEQLKSGTASVVCLLNNFYPREAKVQWKVDNALQSGNSQESVTEQDSKDSTYSLSSTLTLSKADYEKHKVYACEVTHQGLSSPVTKSFNRGEC	0.025 nM
DVD3109 (bispecific antibody, human IgG1, kappa) heavy: not shown light: DVVMTQSPLSLPVTLGQPASISCRSSQSLVHSHGNTYLHWYQQRPGQSPRLLIYTVSNRFSGVPDRFSGSGSGTDFTLKISRVEAEDVGVYYCSQSTHVPYTFGGGTKVEIKRTVAAPDIQMTQSPSSLSASVGDRVTITCRASQDISQYLNWYQQKPGKAPKLLIYYTSRLQSGVPSRFSGSGSGTDFTLTISSLQPEDFATYFCQQGNTWPPTFGQGTKLEIKRTVAAPSVFIFPPSDEQLKSGTASVVCLLNNFYPREAKVQWKVDNALQSGNSQESVTEQDSKDSTYSLSSTLTLSKADYEKHKVYACEVTHQGLSSPVTKSFNRGEC	0.044 nM
DVD3112 (bispecific antibody, human IgG1, kappa) heavy: not shown light: DVVMTQSPLSLPVTLGQPASISCRSSQSLVHSHGNTYLHWYQQRPGQSPRLLIYTVSNRFSGVPDRFSGSGSGTDFTLKISRVEAEDVGVYYCSQSTHVPYTFGGGTKVEIKRTVAAPDIQMTQSPSSLSASVGDRVTITCRASQDISQYLNWYQQKPGKAPKLLIYYTSRLQSGVPSRFSGSGSGTDFTLTISSLQPEDFATYFCQQGNTWPPTFGQGTKLEIKRTVAAPSVFIFPPSDEQLKSGTASVVCLLNNFYPREAKVQWKVDNALQSGNSQESVTEQDSKDSTYSLSSTLTLSKADYEKHKVYACEVTHQGLSSPVTKSFNRGEC	0.017 nM
DVD3106 (bispecific antibody) heavy: not shown light: DIQMTQSPSSLSASVGDRVTITCRASQDISQYLNWYQQKPGKAPKLLIYYTSRLQSGVPSRFSGSGSGTDFTLTISSLQPEDFATYFCQQGNTWPPTFGQGTKLEIKRTVAAPSVFIFPPDVVMTQSPLSLPVTLGQPASISCRSSQSLVHSHGNTYLHWYQQRPGQSPRLLIYTVSNRFSGVPDRFSGSGSGTDFTLKISRVEAEDVGVYYCSQSTHVPYTFGGGTKVEIKRTVAAPSVFIFPPSDEQLKSGTASVVCLLNNFYPREAKVQWKVDNALQSGNSQESVTEQDSKDSTYSLSSTLTLSKADYEKHKVYACEVTHQGLSSPVTKSFNRGEC	0.074 nM
DVD3116 (bispecific antibody) heavy: not shown light: DIQMTQSPSSLSASVGDRVTITCRASQDIENYLNWYQQKPGKAPKLLIYYTSRLQSGVPSRFSGSGSGTDFTLTISSLQPEDFATYFCQQGNTQPPTFGQGTKLEIKRTVAAPSVFIFPPDVVMTQSPLSLPVTLGQPASISCRSSQSLVHSHGNTYLHWYQQRPGQSPRLLIYTVSNRFSGVPDRFSGSGSGTDFTLKISRVEAEDVGVYYCSQSTHVPYTFGGGTKVEIKRTVAAPSVFIFPPSDEQLKSGTASVVCLLNNFYPREAKVQWKVDNALQSGNSQESVTEQDSKDSTYSLSSTLTLSKADYEKHKVYACEVTHQGLSSPVTKSFNRGEC	0.081 nM

Other lines, results leading:

IL-13 Neutralization Assay IC50	Binder
0.029 nM	DVD3107 (bispecific antibody) heavy: not shown light: DIQMTQSPSSLSASVGDRVTITCRASQDISQYLNWYQQKPGKAPKLLIYYTSRLQSGVPSRFSGSGSGTDFTLTISSLQPEDFATYFCQQGNTWPPTFGQGTKLEIKRTVAAPDVVMTQSPLSLPVTLGQPASISCRSSQSLVHSHGNTYLHWYQQRPGQSPRLLIYTVSNRFSGVPDRFSGSGSGTDFTLKISRVEAEDVGVYYCSQSTHVPYTFGGGTKVEIKRTVAAPSVFIFPPSDEQLKSGTASVVCLLNNFYPREAKVQWKVDNALQSGNSQESVTEQDSKDSTYSLSSTLTLSKADYEKHKVYACEVTHQGLSSPVTKSFNRGEC
0.014 nM	DVD3099 (bispecific antibody, human IgG1, kappa) heavy: not shown light: DVVMTQSPLSLPVTLGQPASISCRSSQSLVHSHGNTYLHWYQQRPGQSPRLLIYTVSNRFSGVPDRFSGSGSGTDFTLKISRVEAEDVGVYYCSQSTHVPYTFGGGTKVEIKRTVAAPDIQMTQSPSSLSASVGDRVTITCKASQLVSSAVAWYQQKPGKAPKLLIYWASTLHTGVPSRFSGSGSGTDFTLTISSLQPEDFATYYCQQHYRTPFTFGQGTKLEIKRTVAAPSVFIFPPSDEQLKSGTASVVCLLNNFYPREAKVQWKVDNALQSGNSQESVTEQDSKDSTYSLSSTLTLSKADYEKHKVYACEVTHQGLSSPVTKSFNRGEC
0.018 nM	DVD3111 (bispecific antibody, human IgG1, kappa) heavy: not shown light: DVVMTQSPLSLPVTLGQPASISCRSSQSLVHSHGNTYLHWYQQRPGQSPRLLIYTVSNRFSGVPDRFSGSGSGTDFTLKISRVEAEDVGVYYCSQSTHVPYTFGGGTKVEIKRTVAAPSVFIFPPDIQMTQSPSSLSASVGDRVTITCRASQDISQYLNWYQQKPGKAPKLLIYYTSRLQSGVPSRFSGSGSGTDFTLTISSLQPEDFATYFCQQGNTWPPTFGQGTKLEIKRTVAAPSVFIFPPSDEQLKSGTASVVCLLNNFYPREAKVQWKVDNALQSGNSQESVTEQDSKDSTYSLSSTLTLSKADYEKHKVYACEVTHQGLSSPVTKSFNRGEC
0.037 nM	DVD3101 (bispecific antibody, human IgG1, kappa) heavy: not shown light: DVVMTQSPLSLPVTLGQPASISCRSSQSLVHSHGNTYLHWYQQRPGQSPRLLIYTVSNRFSGVPDRFSGSGSGTDFTLKISRVEAEDVGVYYCSQSTHVPYTFGGGTKVEIKRTVAAPSVFIFPPDIQMTQSPSSLSASVGDRVTITCKASQLVSSAVAWYQQKPGKAPKLLIYWASTLHTGVPSRFSGSGSGTDFTLTISSLQPEDFATYYCQQHYRTPFTFGQGTKLEIKRTVAAPSVFIFPPSDEQLKSGTASVVCLLNNFYPREAKVQWKVDNALQSGNSQESVTEQDSKDSTYSLSSTLTLSKADYEKHKVYACEVTHQGLSSPVTKSFNRGEC
